In the series the test system is GST-NR2F6 fusion protein, wild-type, full-length (purified recombinant).
Sequence of GST-NR2F6 fusion protein, wild-type, full-length (purified recombinant) (chain, as listed by the source): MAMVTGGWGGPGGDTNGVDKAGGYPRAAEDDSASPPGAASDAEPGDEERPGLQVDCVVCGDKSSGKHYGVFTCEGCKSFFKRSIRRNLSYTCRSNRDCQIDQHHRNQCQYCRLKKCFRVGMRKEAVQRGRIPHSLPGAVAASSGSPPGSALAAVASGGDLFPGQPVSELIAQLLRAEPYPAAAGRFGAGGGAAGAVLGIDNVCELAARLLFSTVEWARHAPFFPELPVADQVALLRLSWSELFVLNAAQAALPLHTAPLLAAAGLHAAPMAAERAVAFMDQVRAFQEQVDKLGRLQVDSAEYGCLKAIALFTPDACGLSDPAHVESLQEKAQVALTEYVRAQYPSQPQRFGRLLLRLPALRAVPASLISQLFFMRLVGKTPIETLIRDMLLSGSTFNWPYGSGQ

B1: recombinant PKCzeta (enzyme, UniProt Q05513 1-592, looked up, species assumed)
Protein kinase C zeta type: MPSRTGPKMEGSGGRVRLKAHYGGDIFITSVDAATTFEELCEEVRDMCRLHQQHPLTLKWVDSEGDPCTVSSQMELEEAFRLARQCRDEGLIIHVFPSTPEQPGLPCPGEDKSIYRRGARRWRKLYRANGHLFQAKRFNRRAYCGQCSERIWGLARQGYRCINCKLLVHKRCHGLVPLTCRKHMDSVMPSQEPPVDDKNEDADLPSEETDGIAYISSSRKHDSIKDDSEDLKPVIDGMDGIKISQGLGLQDFDLIRVIGRGSYAKVLLVRLKKNDQIYAMKVVKKELVHDDEDIDWVQTEKHVFEQASSNPFLVGLHSCFQTTSRLFLVIEYVNGGDLMFHMQRQRKLPEEHARFYAAEICIALNFLHERGIIYRDLKLDNVLLDADGHIKLTDYGMCKEGLGPGDTTSTFCGTPNYIAPEILRGEEYGFSVDWWALGVLMFEMMAGRSPFDIITDNPDMNTEDYLFQVILEKPIRIPRFLSVKASHVLKGFLNKDPKERLGCRPQTGFSDIKSHAFFRSIDWDLLEKKQALPPFQPQITDDYGLDNFDTQFTSEPVQLTPDDEDAIKRIDQSEFEGFEYINPLLLSTEESV
Turning to B1, the “in vitro protein kinase assay (32P incorporation into GST-NR2F6)” value is reported as “(but not PKCzeta or PKA) were able to phosphorylate recombinant NR2F6 in vitro”.

Values taken from patent publication US20110239311.
